These results are taken from US20140079753A1, “BMP BINDING PEPTIDES” (Affinergy, LLC, priority 2011, published 2014).

For one test, the target named is T1, BMP2 (Homo sapiens, UniProt P12643).
T1 construct: purchased MEDTRONIC, INC
T1 sequence (P12643 283-396): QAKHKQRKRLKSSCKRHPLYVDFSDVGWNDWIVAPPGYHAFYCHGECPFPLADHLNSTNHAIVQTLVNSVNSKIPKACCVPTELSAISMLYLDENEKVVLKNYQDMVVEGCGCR
Nature of the test: BMP2 binding ELISA of synthetic truncation peptides. Further details: key: (−) no binding; (+) binding similar to that of full-length SEQ ID NO: 148 binding; (−/+) binding decreased relative to full-length SEQ ID NO: 148 binding. The following applies: relative to full-length SEQ ID NO: 148, ELISA. As for the experimental part: The relative binding affinity of synthetic BMP binding peptides SEQ ID NOs: 54-56 for BMP2 is shown in FIG. 17 (SEQ ID NO: 54 (Peptide 1); SEQ ID NO: 55 (Peptide 2); SEQ ID NO: 56 (Peptide 3)). Briefly, the results shown in FIG. 17 were generated by immobilizing biotinylated BMP binding peptides on streptavidin coated plates. Serial dilutions of 100 nM, 20 nM, 4 nM, 0.8 nM, 0.16 nM, 0.032 nM 0.006 nM, and 0.001 nM of BMP-2 were incubated with the immobilized BMP binding peptides for 60 minutes, washed 5 times, and bound BMP quantified using ELISA using mouse anti-BMP2 antibody and anti-mouse IgG-alkaline phosphatase conjugate. In addition, the specificity of BMP binding peptide binding SEQ ID NO: 54 to various members of the BMP family was performed in a similar manner by titrating BMP2, BMP3, BMP5, BMP6, GDF5, GDF7, TGFb1, TGFb3, and PDGF-BB (see FIG. 18).
(§1) For the truncation analysis, peptides with one or more N or C-terminal deletions of SEQ ID NO: 148 were synthesized and tested for BMP2 binding using an ELISA assay. The truncation peptides are shown in Table 5 below along with the relative BMP2 binding activity that was measured for each of the peptides according to the procedure described herein above. The relative BMP2 binding activity is depicted as follows: (−) no binding; (+) binding similar to that of full-length SEQ ID NO: 148 binding; (−/+) binding decreased relative to full-length SEQ ID NO: 148 binding.

The subject of test [1] is adipose derived stem cells (ASCs). Nature of the test: Phage whole cell ELISA for ASC binding. Conditions: ranking among SEQ ID NO: 1 mutagenesis variants of Table 2. The method, then: Peptides that bind adipose derived stem cells (ASCs) were identified by phage display biopanning. ASCs were culture amplified from processed liposuction aspirate (<3 passages) (ZEN-BIO, Research Triangle Park, N.C.). After biopanning, individual plaques were picked, grown overnight, and tested for ASC binding activity using whole cell ELISA according to the following procedure. Phage supernatant was incubated for 30 min at room temperature with ASC monolayers established by overnight culture in 96 well plates. Cells were washed four times with Dulbecco's Phosphate Buffered Saline (DPBS) containing 2% FBS, then incubated with 100 μl of horseradish peroxidase conjugated anti-M13 antibody. After 30 minutes at room temperature, cells were washed four times with DPBS containing 2% FBS. M13 antibody binding was detected by the addition of 3,3′,5,5′-Tetramethylbenzidine (TMB). Blue reaction product, indicating positive binding phage, was measured by absorbance at 370 nm in a microplate reader. For the phage displaying ASC binding activity, DNA sequences were analyzed and translated into peptide sequences using Vector NTI DNA Analysis software and are shown below in Table 1.
Mutagenesis of Cell Binding Peptide Sequence SEQ ID NO: 1. A focused phage display library was generated around the cell binding sequence SEQ ID NO: 1 with each nucleotide position varying in identity at a ratio of 70:10:10:10, with the original nucleotide being the dominant form. This is considered a form of “light” mutagenesis, retaining the majority of residue identities with a few amino acid identity changes. The construction of this “degenerate” phage library was performed according to the methods described in Kay et al., 1996. Three rounds of phage display biopanning were performed on ASCs to enrich for positive binding sequences. Phage showing positive binding to ASCs, identified by whole cell ELISA, were re-amplified, retested, and submitted for DNA sequencing to determine the insert amino acid sequences. In FIG. 14 the single letter amino acid sequence of SEQ ID NO: 1 is shown at the top in white letters with black shading. The phage that retained cell binding activity to adipose derived stem cells (ASCs) and fibroblasts are listed below SEQ ID NO: 1 with original amino acids in white with black shading. Amino acid substitutions are shown in black letters with white shading.

For another test, the system named is human ASCs. Nature of the test: Flow cytometry binding of biotinylated peptides to cells (Neutravidin-PE). Conditions: biotinylated peptide 25 μM, 30 min at 4° C, percent positivity vs Neutravidin-PE alone; data not shown. The source says: (§2) Synthetic biotinylated cell binding peptides SEQ ID NOs: 1 and 2 were examined for their ability to specifically bind ASCs compared to a number of other cells types including bone marrow mesenchymal stem cells (MSCs), dermal fibroblasts, red blood cells, monocytes, lymphocytes granulocytes, and platelets. The cell binding peptides were biotinylated as described herein at Example 2. Cultured cells of each type were either purchased (dermal fibroblasts) or isolated from human bone marrow (MSCs) or human blood. Cells were first harvested with 2 mM EDTA in DPBS and resuspended at 10^6/mL in PBS+2% fetal bovine serum (FBS). An aliquot of cells ([…]) was incubated in 50 μL of peptide solution (25 μM in PBS+FBS) for 30 min at 4° C. Cells were then washed twice in PBS+2% FBS with 300×g centrifugation for 5 min between washes. Fluorescently-tagged neutravidin (Neutravidin-PE from INVITROGEN) was then added to the cells to label biotinylated peptide bound to cells. Neutravidin-PE was diluted 1:250 from stock and applied at 50 μL to cells. Cells were then washed in PBS+FBS, and acquired on a BD FACSARRAY. Peptide reactivity was then measured as percent positivity relative to Neutravidin-PE staining without the addition of biotinylated peptide.

The subject of the next test is dermal fibroblasts. Described as above. Conditions: biotinylated peptide 25 μM, 30 min at 4° C, percent positivity vs Neutravidin-PE alone; data not shown.
Text: as §2

Another test deals with rat fibroblasts. Kind of test: Cell capture by biotinylated peptide on streptavidin plate (CELLTITER GLO). The class given is cell-based. The following applies: 45 min room temperature, cellular ATP, FIG. 15. The method, then: (§3) In this experiment, the ability of biotinylated cell binding peptides SEQ ID NOs: 1 and 2 to capture ASCs and fibroblasts from a single cell suspension onto a solid support was examined. The cell binding peptides were biotinylated as described herein at Example 2. The cell binding peptides and control peptides lacking cell binding activity were added to a 96 well plate containing immobilized streptavidin. After 30 min at room temperature, excess peptide was washed away with PBS+0.1% Tween 20, followed by 2 washes with PBS. Dilutions of single cell suspensions of either human ASCs (hASCs), rabbit ASCs, rat fibroblasts, or human dermal fibroblasts (hDermFib) were added to the peptide coated wells and incubated for 45 min at room temperature with gentle shaking. Wells were washed 3 times with DPBS+2% FBS. The number of attached cells was determined by measuring cellular ATP with CELLTITER GLO reagent from PROMEGA.

A further test deals with rabbit ASCs. Described as above. Type of test: cell-based. The following applies: 45 min room temperature, cellular ATP, FIG. 15. As for the experimental part: as §3
In a further test the test system is human ASCs (hASCs). Described as above. The class given is cell-based. The following applies: 45 min room temperature, cellular ATP, FIG. 15. As for the experimental part: as §3
For test [2], the system named is human dermal fibroblasts (hDermFib). The test is described as above. The class given is cell-based. Conditions: 45 min room temperature, cellular ATP, FIG. 15. The method, then: as §3
A further test has as its target T2, BMP2 (MEDTRONIC, INC.) (UniProt P12643 283-396, biotinylated with NHS-biotin (average of one biotin per protein molecule) in the phage ELISA; not biotinylated in the peptide ELISA).
T2 construct: also called bone morphogenic protein 2
Nature of the test: ELISA of synthetic truncation peptides on BMP2; legend in paragraph 124: (-) no binding. As for the experimental part: as §1

Regarding 195 (WDDWIGY) [compound 195], the BMP2 binding entry with BMP2 is “−”.

As to SSWHISHDDIGVFIR [SEQ ID NO: 6], in test [1], the “binding affinity for ASCs” value is given as “highest binding affinity”.

Consider SNWHITHDSIGVLVR [SEQ ID NO: 3], for which the “binding affinity for ASCs” value in [1] is on record as “highest binding affinity”.

For the molecule 185 (IWDDWIGYSR) [compound 185], the BMP2 binding result with BMP2 is given as “−”.

For 196 (WDDWIG) [compound 196], the BMP2 binding result with BMP2 is recorded as “−”.

As to SAFHSSHDSIGVFIN [SEQ ID NO: 21], in test [1], the “binding affinity for ASCs” value is given as “highest binding affinity”.

As to 188 (DWIGYSR) [compound 188], the BMP2 binding result with BMP2 was “−”.

On to SNWTSSHDDIGVFLR [SEQ ID NO: 29], for which, in test [1], the “binding affinity for ASCs” value is “highest binding affinity”.

In the case of 197 (IWDDWI) [compound 197], the BMP2 binding result in the test with BMP2 is “−”.

For 191 (SIWDDWIG) [compound 191], the BMP2 binding entry with BMP2 is “−/+”.

For the molecule SSWHISHDSIGVLIR [SEQ ID NO: 1], in the test with human ASCs, the “binding to human ASCs” value was “significant binding”. Besides, the “binding to dermal fibroblasts” value with dermal fibroblasts is on record as “significant binding”. Further, the “capture of rat fibroblasts” value in the test on rat fibroblasts is given as “to a lesser extent”. Also, the “capture of rabbit ASCs” value with rabbit ASCs is on record as “to a lesser extent”. In addition, the “capture of human ASCs” value in the test on human ASCs (hASCs) is “capture human ASCs”.

Consider 148 (SIWDDWIGYSR) [compound 148], for which, in the test with BMP2, the BMP2 binding entry is “+”.

Consider 189 (SIWDDWIGYS) [compound 189], for which, in the test with BMP2, the BMP2 binding entry is “+”.

With 190 (SIWDDWIGY) [compound 190], in the test with BMP2, the BMP2 binding result was “+”.

For the molecule SHCVLGHDGRSRCII [SEQ ID NO: 2], the “binding to human ASCs” value in the test on human ASCs is “significant binding”. Besides, the “binding to dermal fibroblasts” value in the test with dermal fibroblasts was “significant binding”. The “capture of human fibroblasts” value in [2] was “behaved similarly”. Further, the “capture of rat fibroblasts” value in the test with rat fibroblasts was “without exhibiting significant binding”. In addition, the “capture of rabbit ASCs” value in the test on rabbit ASCs is “behaved similarly”. Besides, the “capture of human ASCs” value in the test on human ASCs (hASCs) was “behaved similarly”.

Turning to 192 (SIWDDWI) [compound 192], the BMP2 binding result in the test with BMP2 is listed as “−/+”.

For the molecule SFWHVTHDSTGVLIR [SEQ ID NO: 4], the “binding affinity for ASCs” value in test [1] is “highest binding affinity”.

As to 186 (WDDWIGYSR) [compound 186], the BMP2 binding result in the test with BMP2 is “−”.

Take 193 (IWDDWIGYS) [compound 193]: the BMP2 binding entry with BMP2 is “−”.

Turning to 194 (IWDDWIGY) [compound 194], the BMP2 binding result with BMP2 is “−”.

In the case of SSFHISHDNIGVFVR [SEQ ID NO: 9], the “binding affinity for ASCs” value in test [1] is listed as “highest binding affinity”.

In the case of 187 (DDWIGYSR) [compound 187], the BMP2 binding result with BMP2 is recorded as “−”.

B1: Truncation peptide SEQ ID NO: 188 (peptide)
peptide: DWIGYSR
modifications: C-terminal GSSGK(biotin) or other spacer group possible; not stated for this assay
notes: also called DWIGYSR
For B1, the binding result with BMP2 (MEDTRONIC, INC.) is given as “no binding”.

B2: Truncation peptide SEQ ID NO: 187 (peptide)
peptide: DDWIGYSR
modifications: C-terminal GSSGK(biotin) or other spacer group possible; not stated for this assay
In the case of B2, in the test with BMP2 (MEDTRONIC, INC.), the binding result is reported as “no binding”.

B3: Truncation peptide SEQ ID NO: 185 (peptide)
peptide: IWDDWIGYSR
modifications: C-terminal GSSGK(biotin) or other spacer group possible; not stated for this assay
Consider B3, for which the binding result with BMP2 (MEDTRONIC, INC.) is reported as “no binding”.

B4: Truncation peptide SEQ ID NO: 194 (peptide)
peptide: IWDDWIGY
modifications: C-terminal GSSGK(biotin) or other spacer group possible; not stated for this assay
As for B4, the binding result with BMP2 (MEDTRONIC, INC.) is reported as “no binding”.

B5: Truncation peptide SEQ ID NO: 196 (peptide)
peptide: WDDWIG
modifications: C-terminal GSSGK(biotin) or other spacer group possible; not stated for this assay
notes: also called WDDWIG
For the molecule B5, in the test with BMP2 (MEDTRONIC, INC.), the binding result is reported as “no binding”.

B6: Truncation peptide SEQ ID NO: 197 (peptide)
peptide: IWDDWI
modifications: C-terminal GSSGK(biotin) or other spacer group possible; not stated for this assay
notes: also called IWDDWI
As to B6, in the test with BMP2 (MEDTRONIC, INC.), the binding result is “no binding”.

B7: Truncation peptide SEQ ID NO: 193 (peptide)
peptide: IWDDWIGYS
modifications: C-terminal GSSGK(biotin) or other spacer group possible; not stated for this assay
With B7, in the test with BMP2 (MEDTRONIC, INC.), the binding result was “no binding”.

B8: Truncation peptide SEQ ID NO: 195 (peptide)
peptide: WDDWIGY
modifications: C-terminal GSSGK(biotin) or other spacer group possible; not stated for this assay
notes: also called WDDWIGY
B8: in the test with BMP2 (MEDTRONIC, INC.), the binding result is recorded as “no binding”.

B9: Truncation peptide SEQ ID NO: 186 (peptide)
peptide: WDDWIGYSR
modifications: C-terminal GSSGK(biotin) or other spacer group possible; not stated for this assay
Turning to B9, the binding result with BMP2 (MEDTRONIC, INC.) was “no binding”.
